Measurements reported in patent publication WO2007014744A2 (dated 2007).

Legend:
[1] = molecular target: T1, fibroblast activation protein (FAP) (UniProt Q12884 1-760, limits assumed); test: flow cytometry on HT1080FAP against HT1080 cells, 5 ug/ml fusion protein, anti-Flag M2 detection
T1 construct: whole, on cells; also called FAP antigen; FAP on HT1080FAP cells
T1 sequence (looked up): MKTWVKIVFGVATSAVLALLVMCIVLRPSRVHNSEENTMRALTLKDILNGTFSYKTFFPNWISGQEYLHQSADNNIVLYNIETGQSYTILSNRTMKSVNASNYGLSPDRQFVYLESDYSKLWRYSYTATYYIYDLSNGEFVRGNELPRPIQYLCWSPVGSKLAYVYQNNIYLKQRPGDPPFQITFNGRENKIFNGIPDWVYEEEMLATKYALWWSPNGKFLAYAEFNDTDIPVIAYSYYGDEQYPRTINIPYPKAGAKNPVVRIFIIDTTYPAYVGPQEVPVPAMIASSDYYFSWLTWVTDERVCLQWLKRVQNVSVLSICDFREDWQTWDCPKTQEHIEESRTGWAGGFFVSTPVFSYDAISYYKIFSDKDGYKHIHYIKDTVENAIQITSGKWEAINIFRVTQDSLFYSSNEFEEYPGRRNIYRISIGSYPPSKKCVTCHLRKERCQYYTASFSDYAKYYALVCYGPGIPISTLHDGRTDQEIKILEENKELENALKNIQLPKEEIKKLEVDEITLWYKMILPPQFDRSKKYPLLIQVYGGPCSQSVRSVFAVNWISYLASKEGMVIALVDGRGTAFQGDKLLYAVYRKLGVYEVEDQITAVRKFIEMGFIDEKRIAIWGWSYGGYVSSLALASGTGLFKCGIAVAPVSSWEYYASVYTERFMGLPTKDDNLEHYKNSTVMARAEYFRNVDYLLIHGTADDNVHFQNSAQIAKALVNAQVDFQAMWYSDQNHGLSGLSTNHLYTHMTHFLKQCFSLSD

[2] = molecular target: the molecule itself; test: BS3 chemical crosslinking, gel filtration and native PAGE; multimers up to hexamers, native mass about 500 kDa

B1: CD95-TNC-PL-SC40-CD95L prodrug (other)
chain: LEVARLSSKSVNAQVTDINSKGLELRKTVTTVETQNLEGLHHDGQFCHKPCPPGERKARDCTVNGDEPDCVPCQEGKEYTDKAHFSSKCRRCRLCDEGHGLEVEINCTRTQNTKCRCKPNFFCNSTVCEHCDPCTKCEHGIIKECTLTSNTKCKEEGSRSNPRDIACGCAAAPDIKDLLSRLEELEGLVSSLREQGTGGGSGRPPRDHPVGLLARGGGHPVGLLARGGGHPVGLLARTGLEQVQLVQSGGGMVEPGGSLRLSCAASGFTFSNAWMSWVRQAPGKGLEWVGRIKSKAGGGTAEYAAPVKGRFTISRDDSQNTLYLQMNSLKTDDTAVYYCTTHVYGAPRNWGQGSLVTVSSASTKGPKLEEGEFSEARVQSVLTQPPSVSAAPGQKVTISCSGSSSNIGNNYVSWYVQLPGTAPKLLIYDNNKRFSGVPDRFSGSKSGTSATLGITGLQTGDEADYYCGAWDGSLREAVFGGGTKVTVLGAAAVDDYKDDDDKEFTREKKELRKVAHLTGKSNSRSMPLEWEDTYGIVLLSGVKYKKGGLVINETGLYFVYSKVYFRGQSCNNLPLSHKVYMRNSKYPQDLVMMEGKMMSYCTTGQMWARSSYLGAVFNLTSADHLYVNVSELSLVNFEESQTFFGLYKL
notes: Made in HEK293 cells and purified on anti-Flag M2 agarose; Forms covalently associated trimers through the tenascin domain; Crosslinking, gel filtration and native PAGE (about 500 kDa) point to hexamers, i.e. dimers of trimers; also called SC40-CD95L-PD; CD95-TNC-PL-SC40-F-CD95L
binding result [1]: binds
binding result [2]: binds
